Source: a protein production outcome set (Wang et al. 2014)

Test: label from the status in PepcDB records

Sequence	protein production
MSKLAQIVQKLKKQGIEAAVLSDPVSINYLTGFYSDPHERLMFLFLFADQEPLLFLPELDALRAKSILDISVTGYLDFENPLEKIKTLLPKTNYSKIALEFDNLNVTKFKGLETIFSGQFTNLTPLINRMRLIK	failed
MDGSPARPVPLVPDAAPAAPGRGRLAALTLLTLGFFAANSLLARAALRPGLADPATFTAIRLASGAAALGGLALASRRARPRGGSAGSALALFAYAAAFSLAYRRIDAGPGAFLLFFAVQASMIGWSVLRGARPTRRQWAGLAVALAGLGWLTLPGAHAPDARGAALMLAAGVAWGAYTLRGRGVRDPAGATAANFALAVPLALCLVIASAGTLHLTARGAALAAASGAVASGVGYVLWYTVVPALGAARAAAVQLAVPAMVPLAAAGLLGEAITPRLLAAGTAILAGVALAIAPAARGGAFTRALSSRAGSAVERPPR	failed
MEDLLPTLPSLDHRDALPNALASPVLPAGQSDAQLVRTWLDTKYAAGLGIRASTRAQYALEAHRLLWYAHALGRPLASWQVADANGYLAFLADPPAHAVGDGRVRQDSPAWRPLRGPLSEASRRQTATIVGGLFEWLVGVEALRVNPFQAVPRARSARGPGSQRRFLEAEQLAAVFDAVEARPAPTLWAQLHKARDRLLLALLFHTGLRASEVTALTWPDFERQRGRHGDFWTVRIREAKGGSDQLVPCDNVMAELARFRQLVGLSPEPRATDTMAVVPAMAGGRQRLAPLTDTLALQRRLSRPVRTRQGLYTIVRQVFEAAAVRLEASGYAEGAANLRAASTHWLRHSHATHLLRAGVPVTDVQRTLRHRDINTTRRYTHEALEDVARSIGGKLPAVLEHHHHHH	failed
MDRRLKKCSTSTDVESVHDVSKVTDPLQKAKRELDNVEIKEKQKKQKNQNETSEKETKKFSTVYEKFNDTIKELDRVSGTCPIRPAIPFTPPKEKVEPIYHNECNFDDKAHLGVSDSALFVQGFDTSHPRHEIKTALWNHFSSCGKVYLIYVPIACSTGASVGYAFIDMKNETKGLTLNGSHLGGRKIDVMFAIDREEFYFSSNLKHCQRCRNYRPWLVLKAMSDACFEYHQRIKPRIVGTPHSKIGRFTAIIGRRSYS	failed
MADKAVADRTIEGLTRAGAAMAAGEIDQAAAHLQAAAQLCPDEPMIWALLGEVLLLLDRPQDGLGALDRALALAPEDPRPRFHRARAFERLDRLAEALADQEALAILCANKAEVWHNLGLLRRAGGDPSGAEAAFGRALALEPSRAESALALAHSLLGRAAWAEGFAHYEARLSLPGWQRPAPLPGRRWRGEDPAGRTLLVSAEQGLGDGVQFLRYLPLIKGAGKVIVECHPPLRRLIAAQPGVDATIAFGEAIPDLGAEGLTIPLASLALPLAGGAPLGERIPYVSKPRLRPQGDRPRIGLAWRSSDRAELRRDPPLAALAALAAIPAVDWVSLQFAPTDYPALPLDLRPMASVDDLDDTAALIADLDLVISVDTAVAHLAGAMGKPLWVLLGPRADWRWTASAQSSPWYPSCVPFFHGAEGWPGVIAAVSERLKAAFNGPPAR	failed
MQERIKACFTESIQTQIAAAEALPDAISRAAMTLVQSLLNGNKILCCGNGTSAANAQHFAASMINRFETERPSLPAIALNTDNVVLTAIANDRLHDEVYAKQVRALGHAGDVLLAISTRGNSRDIVKAVEAAVTRDMTIVALTGYDGGELAGLLGPQDVEIRIPSHRSARIQEMHMLTVNCLCDLIDNTLFPHQDD	not failed
MSSSHLAERHAFSDLSLLSEALAQSVTVTLRNAIERYGKASLVVPGGHTPVVYLPRLAQMDLPWQQVFITLSDERWVEPTSEQSNERLVREHFLQHMQQQPHFIALKTGHIHPDQAITDIDARLAELPQPFSLVILGLGEDGHIASLFPGMALNPDTTSLCQTATPPAAPSLRISLSLHALINSDRIILVITGKEKRQLIDRLIESPDQNIPFVRLMQFKPVELFETD	not failed
MLAVIEKQGNEYVVQFERYFSYSIEEVWSVLTENSKLKKWMSNLQIESLKTGGIIKFDMMDGSFINIDILECQVNAVLEFTWDKDCVRFEIHKEENDTLLLLKEYIHELTDHTPKDIAGWHICLDLFSSVLEGKEKEFSKDEWKQWFEIYKDKVLELRA	failed
MTLLDSMIVMIYLLFIGIAAWLFRRFSTSSNDFLQGGGTMMWWMAGATAFMTQFSAWTFTGAAAKAYEDGISVMFIFWGNALGFFVAAAFFARRYRRLRVETAMEVIRVRFGHTSEQLFTWLSFPLTLIACAIWMNGLASFFSAVFAIEMSTTILAMGVIVTLIAVSGGAWTVSVTNVIQLVLLIAITLVIGYTALQHFDSPSEVFAYTTPIYGEQIRMPSLFVMWAIAMLLQQTMSNNHTLSCYRFLTTANDKDATKAAFVAGVLFVFAPVLWFMPAWFVAAQNIDLLAIYPALEQSANNAAYLYYIQHYMPQGLLGLVMVALVAATIAPLSSAHNRNAGIVVKSLYQVWFNPNATSRQQLMVGKIATIVSGILATVTALLLASVESYSLFDMMIVFAAFIQMPINIPSLLALVSLKTPNWSGWATVMVGCVVSLFMMFIFDVQWISSSPLTPRESKDLSVVATLAVHLLVTGGFFLSTRVFYAKESPSIQQSRTALSIQLATPISDEELSPINHKQGLYVGSITALAGMLLILAGVVLAGSSQSIFVAIGCIVLLFSLFLLQPTLHSKRAWQKQKTK	failed
MSAALPSIQLPVDYNNLFNEITDFLVTFKQDTLSSDATRNENEDENLDAENIEQHLLEKGPKYMAMLQKVANRELNSVIIDLDDILQYQNEKFLQGTQADDLVSAIQQNANHFTELFCRAIDNNMPLPTKEIDYKDDVLDVILNQRRLRNERMLSDRTNEIRSENLMDTTMDPPSSMNDALREVVEDETELFPPNLTRRYFLYFKPLSQNCARRYRKKAISSKPLSVRQIKGDFLGQLITVRGIITRVSDVKPAVEVIAYTCDQCGYEVFQEVNSRTFTPLSECTSEECSQNQTKGQLFMSTRASKFSAFQECKIQELSQQVPVGHIPRSLNIHVNGTLVRSLSPGDIVDVTGIFLPAPYTGFKALKAGLLTETYLEAQFVRQHKKKFASFSLTSDVEERVMELITSGDVYNRLAKSIAPEIYGNLDVKKALLLLLVGGVDKRVGDGMKIRGDINVCLMGDPGVAKSQLLKAICKISPRGVYTTGKGSSGVGLTAAVMKDPVTDEMILEGGALVLADNGICCIDEFDKMDESDRTAIHEVMEQQTISISKAVINTNPGARTSILAAANPLYGRINPRLSPLDNINLPAALLSRFDILFLMLDIPSRDDDEKLAEHVTYVHMHNKQPDLDFTPVEPSKMREYIAYAKTKRPVMSEAVNDYVVQAYIRLRQDSKREMDSKFSFGQATPRTLLGIIRLSQALAKLRLADMVDIDDVEEALRLVRVSKESLYQETNKSKEDESPTTKIFTIIKKMLQETGKNTLSYENIVKTVRLRGFTMLQLSNCIQEYSYLNVWHLINEGNTLKFVDDGTMDTDQEDSLVSTPKLAPQTTASANVSAQDSDIDLQDA	failed
MIYQVDGKTIVLVLEQGEDIVEAVTDIAREQNGKFGTVSGIGACSSAELNFYNLETQTYEKKLIDEPLELIGLMGNISHIDEQPFAHLHATFGTNQYETLSGHLTKAVVSATAEIIITMTNLDINRKHNETIGLNLLDLLEHHHHHH	not failed
MSSTLRFHVLGRGAALPRAVAPYFVLRTDNWDDFGHRVQFHLILIVSGAPEKRIGSLKVLQRTSDKGEAMMVATDTELPSKFVELDDTFVSLGQDDDFYKKLHEALGDRAGEVLDALRDIAWRPAFASDFEPTPAFRNAMMRENGAQRARRFGRAWALGEQITERPAFDYVGTIEGADIKVEGEFDFSATDPVPGRIVGLIGRNAVGKTRYLASLGSDLAQISRRSAEALEAREARFPGGRPLFTRIIAISYSAFDRFKRPPMDSSSSYVYCGIRNDRGGLSRSALIDRYRLNQVRIRERGEQRSWMRHMKTILGDQGAQLTASLEEEIRSDSTDDSALSSLSSGQSILAHFVTALLAWIQPNSLVLFDEPETHLHPNAVASLFLVLSQVLQEFDSYAVIATHSPVVIQEIPAKRVLVFRREGNVTIAEPLLLESFGESVTELTRHVFETGEVESLYKRTLRELAAEDTVEDVLARFELGLSLSAQAYLLAQYSKKAGGRTLEHHHHHH	failed
MSDFWENELVEIAAYYSVAVLCLVLFLTVFELVTAYKNWEEIQKGNLAVAMATGGKILGIANVFQHSISQHNSLLQMIGWGVYGFVMLLISYFIFEFLTPRFKIDQEIENDNRAVGFISFVISVGLSFVVAAGI	failed
MGNIIRALVAFIPTDRCQSYVVGDLREMPLDRMVDLSGSQLRRFPLHVCSFTELVKLYLSDNHLHSLPPDLAQLQNLQILALDFNNFKALPQAVCTLKQLCILYLGNNKLCDLPDELSLLQNLRTLWLESNCLTRLPDVVCELSLLKTLHAGSNALRLLPGQLRRLRELRTIWLSGNQLADFPSVLLHMPFLEVIDVDRNSIRYFPSLAHLTNLKLVIYDHNPCRNAPKVGKGVRRVGRWAEETPEPDRRKTRRSALAKEENQEPPPLLPPSS	failed
MNETINYDSLLILSVVAFFTPFLVSRLKRVNIPYQVGEIFIGILLGKSFLNIIKPDIWILFLSNLGLAYLMFLSGLAIDFDELKPKEGELLKDSKLFTSIKMFIVSIITAIILSFTLKFAGISEGYIFFALLFTAAAPGLLVPILKTKHIINSSYGQTLLVFGIITQLVSLIGVTFVASVAVNGITLKSFTFLIIFAVAIVVYFLSKIIFKVHDFSTIAFKNLHLSVRGAFVLVLVLVAVAEKVDSEIILGSFLAGMVFSLIVGKAKEEISHQLDVVGYGFLIPIFFIMVGVNVDLKAVVENPQSIAKIPLFILIFFLVKFIPSLLLKKKYGKRNSLAASMLLTAQLSLVIVGSQMALNLGYITAADYSAFVVTTVITCIFFPILFEKLITLNGDTNDTVEEDEKIIIREVLVSSQWYIGKALKDCKLPTGCRIFSMVRDDHEFMPNANTILEENDLVILAGVKHDVNETLNMLSTCDLTLPEE	failed
MSDRLGIFFSGLCFVHCLATPILLIFLGTNSLASVLETPLFHRLLLLPVLTMAIFQGYYAWKNPQAKLSRVLLPLGCLAVVIAQFFHGPIEILLTIIGSLTLISGHFFHLKHEHCADQN	failed
MNAIRYTKRECKDEKKITEFLNKARTGFLGLSTNDQPYVIPLNFVWHNHAIYFHGASEGRKIKMIEANPEVCFTICEDLGTIVSPVPAHTDTAYMSVIIFGTIEPVSAIEEGTEAMQQMLDKYVPGYYHSPLAASHVEKYRSSLGSRTAIYKISCRERTAKVNEPIESLKFYPGRNVSVDKDSR	not failed
MPVLVASDLDRTLIYSAAALGLTMPDLRAPRLLCVEVYESKPLSYLTETAAQLLTDLGDSALFVPTTTRTRKQYQRINLPGPAPKYAICANGGHLLVDGVSDPGWHARVTARLADECASLAEVRDHLTNTADPLWVRKHRVAEDLFAYLVVERDLLPQDWVKELAVWAENRGWTVSLQGRKIYAVPKPLTKSAAMHEVARRTGAELTLAAGDSLLDADLLLAADRGWRPGHGELADSGWTAPTISALPERGVLAGERILREFLRAVRPAR	failed
SNAMNVPFWTEEHVRATLPERDAESHKGTYGTALLLAGSDDMPGAALLAGLGAMRSGLGKLVIGTSENVIPLIVPVLPEATYWRDGWKKAADAQLEETYRAIAIGPGLPQTESVQQAVDHVLTADCPVILDAGALAKRTYPKREGPVILTPHPGEFFRMTGVPVNELQKKRAEYAKEWAAQLQTVIVLKGNQTVIAFPDGDCWLNPTGNGALAKGGTGDTLTGMILGMLCCHEDPKHAVLNAVYLHGACAELWTDEHSAHTLLAHELSDILPRVWKRFE	not failed
STGSATTTPIDSLDDAYITPVQIGTPAQTLNLDFDTGSSDLWVFSSETTASEVDGQTIYTPSKSTTAKLLSGATWSISYGDGSSSSGDVYTDTVSVGGLTVTGQAVESAKKVSSSFTEDSTIDGLLGLAFSTLNTVSPTQQKTFFDNAKASLDSPVFTADLGYHAPGTYNFGFIDTTAYTGSITYTAVSTKQGFWEWTSTGYAVGSGTFKSTSIDGIADTGTTLLYLPATVVSAYWAQVSGAKSSSSVGGYVFPCSATLPSFTFGVGSARIVIPGDYIDFGPISTGSSSCFGGIQSSAGIGINIFGDVALKAAFVVFNGATTPTLGFASK	not failed
